Experimental data taken from PMC9482650, “Quantitative fragmentomics allow affinity mapping of interactomes” (Nature Communications, 2022).

What was measured:
Assay in all cases: holdup assay
Design in all cases: key: below the threshold = too weak to quantify, mostly under pKd 3.1 to 4
DLG2_3, Q15700 = target: DLG2_3, Q15700
LIN7C, Q9NUP9 = target: T1, LIN7C, Q9NUP9
T1 sequence (Q9NUP9 88-185, limits assumed, looked up): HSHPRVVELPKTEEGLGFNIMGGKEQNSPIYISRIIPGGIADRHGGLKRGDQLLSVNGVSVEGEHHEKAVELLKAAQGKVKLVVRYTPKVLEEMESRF

SCRIB_3, Q14160 = target: SCRIB_3, Q14160
MPDZ_10, O75970 = target: T2, MPDZ_10, O75970
T2 sequence (O75970 1624-1722, limits assumed, looked up): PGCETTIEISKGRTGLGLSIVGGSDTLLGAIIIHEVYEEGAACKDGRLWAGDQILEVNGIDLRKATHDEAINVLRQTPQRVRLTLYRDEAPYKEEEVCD

Inadl_10, Q8NI35 = target: Inadl_10, Q8NI35
LDB3, O75112 = target: LDB3, O75112
SIPA1L2, Q9P2F8 = target: T3, SIPA1L2, Q9P2F8
T3 sequence (Q9P2F8 945-1036, limits assumed, looked up): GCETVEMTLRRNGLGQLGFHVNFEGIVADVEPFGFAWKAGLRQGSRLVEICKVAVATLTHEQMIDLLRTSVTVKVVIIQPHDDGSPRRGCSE

DLG1_1, Q12959 = target: DLG1_1, Q12959
DLG3_1, Q92796 = target: T4, DLG3_1, Q92796
T4 sequence (Q92796 125-227, limits assumed, looked up): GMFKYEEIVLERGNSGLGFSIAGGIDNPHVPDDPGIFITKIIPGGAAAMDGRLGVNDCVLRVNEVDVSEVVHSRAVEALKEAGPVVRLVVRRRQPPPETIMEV

PARD3_3, Q8TEW0 = target: PARD3_3, Q8TEW0
APBA2_2, Q99767 = target: T5, APBA2_2, Q99767
T5 sequence (Q99767 654-744, limits assumed, looked up): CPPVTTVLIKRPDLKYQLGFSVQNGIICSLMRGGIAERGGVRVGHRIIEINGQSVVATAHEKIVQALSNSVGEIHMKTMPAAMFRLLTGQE

NOS1, P29475 = target: NOS1, P29475
DFNB31_2, Q9P202 = target: T6, DFNB31_2, Q9P202
T6 sequence (Q9P202 274-371, limits assumed, looked up): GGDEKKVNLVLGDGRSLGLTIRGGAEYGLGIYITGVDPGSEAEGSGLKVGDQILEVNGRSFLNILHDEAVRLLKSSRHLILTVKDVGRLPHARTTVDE

LNX2_2, Q8N448 = target: T7, LNX2_2, Q8N448
T7 sequence (Q8N448 334-432, limits assumed, looked up): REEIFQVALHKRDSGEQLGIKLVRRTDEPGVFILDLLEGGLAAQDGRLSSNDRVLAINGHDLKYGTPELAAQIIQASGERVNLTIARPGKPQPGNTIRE

GRIP2_4, Q9C0E4 = target: GRIP2_4, Q9C0E4
FRMPD1, Q5SYB0 = target: T8, FRMPD1, Q5SYB0
T8 sequence (Q5SYB0 52-145, limits assumed, looked up): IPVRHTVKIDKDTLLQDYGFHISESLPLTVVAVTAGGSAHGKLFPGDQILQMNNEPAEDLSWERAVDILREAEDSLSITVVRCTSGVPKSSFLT

TX1BP3, O14907 = target: T9, TX1BP3, O14907
T9 sequence (O14907 10-122, limits assumed, looked up): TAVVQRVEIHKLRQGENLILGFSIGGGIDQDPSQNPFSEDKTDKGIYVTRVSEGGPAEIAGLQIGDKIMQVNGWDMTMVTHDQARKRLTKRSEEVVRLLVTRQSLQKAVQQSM

MAGI1_2, Q96QZ7 = target: MAGI1_2, Q96QZ7
GRIP2_5, Q9C0E4 = target: GRIP2_5, Q9C0E4
GORASP1, Q9BQQ3 = target: GORASP1, Q9BQQ3
GRIP2_6, Q9C0E4 = target: GRIP2_6, Q9C0E4
MPP2, Q14168 = target: T10, MPP2, Q14168
T10 sequence (Q14168 180-250, limits assumed, looked up): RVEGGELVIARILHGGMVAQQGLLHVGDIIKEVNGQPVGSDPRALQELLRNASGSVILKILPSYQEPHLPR

HTRA2, O43464 = target: HTRA2, O43464
GRIP2_7, Q9C0E4 = target: GRIP2_7, Q9C0E4
NHERF4_2, Q86UT5 = target: NHERF4_2, Q86UT5
DVL3, Q92997 = target: T11, DVL3, Q92997
T11 sequence (Q92997 244-331, limits assumed, looked up): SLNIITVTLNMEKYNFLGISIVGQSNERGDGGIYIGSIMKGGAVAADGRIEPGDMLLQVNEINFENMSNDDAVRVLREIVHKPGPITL

[1] = plain residues with an end cap or a label only (N-terminal biotin on a linker: ttds)
[2] = plain residues with an end cap or a label only (N-terminal biotin on a linker: ahx)

Sequence of NOS1, P29475 (P29475 9-101): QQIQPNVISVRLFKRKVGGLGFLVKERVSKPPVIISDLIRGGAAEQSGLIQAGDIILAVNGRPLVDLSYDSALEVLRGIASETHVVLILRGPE
Sequence of MAGI1_2, Q96QZ7 (Q96QZ7 456-580): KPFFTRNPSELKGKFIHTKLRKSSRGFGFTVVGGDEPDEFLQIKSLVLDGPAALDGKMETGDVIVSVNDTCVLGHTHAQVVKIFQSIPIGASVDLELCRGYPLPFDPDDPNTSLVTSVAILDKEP
Sequence of NHERF4_2, Q86UT5 (Q86UT5 220-308): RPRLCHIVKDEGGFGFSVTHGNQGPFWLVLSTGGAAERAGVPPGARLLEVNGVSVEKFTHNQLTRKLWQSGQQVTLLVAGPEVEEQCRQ
Sequence of GORASP1, Q9BQQ3 (Q9BQQ3 1-208): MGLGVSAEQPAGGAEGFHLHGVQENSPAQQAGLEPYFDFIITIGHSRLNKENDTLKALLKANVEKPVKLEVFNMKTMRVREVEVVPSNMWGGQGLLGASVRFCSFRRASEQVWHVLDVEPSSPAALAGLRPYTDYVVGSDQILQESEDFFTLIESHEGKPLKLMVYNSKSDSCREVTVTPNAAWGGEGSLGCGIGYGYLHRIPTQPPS
Sequence of HTRA2, O43464 (O43464 355-458): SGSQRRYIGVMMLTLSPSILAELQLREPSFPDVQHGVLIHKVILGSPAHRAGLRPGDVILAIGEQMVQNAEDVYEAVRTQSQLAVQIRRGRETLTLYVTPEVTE
Sequence of GRIP2_6, Q9C0E4 (Q9C0E4 648-740): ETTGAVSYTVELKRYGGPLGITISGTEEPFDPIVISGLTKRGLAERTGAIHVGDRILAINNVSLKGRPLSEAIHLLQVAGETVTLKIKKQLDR
Sequence of LDB3, O75112 (O75112 1-94): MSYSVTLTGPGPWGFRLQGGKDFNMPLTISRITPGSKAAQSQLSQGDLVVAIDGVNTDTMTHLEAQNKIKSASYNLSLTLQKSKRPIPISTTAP
Sequence of Inadl_10, Q8NI35 (Q8NI35 1673-1763): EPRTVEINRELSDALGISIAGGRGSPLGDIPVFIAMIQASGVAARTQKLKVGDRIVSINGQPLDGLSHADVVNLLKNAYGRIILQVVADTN
Sequence of PARD3_3, Q8TEW0 (Q8TEW0 582-685): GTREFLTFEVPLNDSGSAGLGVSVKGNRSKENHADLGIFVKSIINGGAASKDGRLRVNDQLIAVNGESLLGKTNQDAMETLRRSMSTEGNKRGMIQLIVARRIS
Sequence of GRIP2_4, Q9C0E4 (Q9C0E4 446-548): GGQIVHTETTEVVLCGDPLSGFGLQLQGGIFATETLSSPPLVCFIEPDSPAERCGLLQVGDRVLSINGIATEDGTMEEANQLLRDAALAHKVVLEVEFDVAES
Sequence of GRIP2_7, Q9C0E4 (Q9C0E4 934-1023): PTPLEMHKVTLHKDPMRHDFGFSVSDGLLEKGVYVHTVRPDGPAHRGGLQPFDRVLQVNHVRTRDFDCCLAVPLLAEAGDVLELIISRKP
Sequence of SCRIB_3, Q14160 (Q14160 999-1103): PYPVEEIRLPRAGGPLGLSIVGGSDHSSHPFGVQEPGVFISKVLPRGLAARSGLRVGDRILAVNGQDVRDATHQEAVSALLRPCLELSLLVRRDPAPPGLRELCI
Sequence of GRIP2_5, Q9C0E4 (Q9C0E4 544-642): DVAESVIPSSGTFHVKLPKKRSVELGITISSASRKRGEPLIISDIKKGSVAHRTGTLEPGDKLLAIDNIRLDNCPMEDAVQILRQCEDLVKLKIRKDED

Work on SPLHSLETSL [ATP2B1, P20020] yielded a pKd (DLG2_3, Q15700; [1]) of 4.07, a pKd (LIN7C, Q9NUP9; [1]) of 4.45 and a pKd (SCRIB_3, Q14160; [1]) of 5.54. For the same binder, the pKd (MPDZ_10, O75970; [1]) was “below the threshold”, the pKd (Inadl_10, Q8NI35; [1]) was “below the threshold” and the pKd (LDB3, O75112; [1]) was “below the threshold”. For the same binder, the pKd (SIPA1L2, Q9P2F8; [1]) was “below the threshold”, the pKd (DLG1_1, Q12959; [1]) was 4.12 and the pKd (DLG3_1, Q92796; [1]) was 3.62. The pKd (PARD3_3, Q8TEW0; [1]) was 3.82, the pKd (APBA2_2, Q99767; [1]) was “below the threshold” and the pKd (NOS1, P29475; [1]) was 3.77. The pKd (DFNB31_2, Q9P202; [1]) was “below the threshold”, the pKd (LNX2_2, Q8N448; [1]) was “below the threshold” and the pKd (GRIP2_4, Q9C0E4; [1]) was “below the threshold”. The pKd (FRMPD1, Q5SYB0; [1]) was “below the threshold”, the pKd (TX1BP3, O14907; [1]) was 4.45 and the pKd (MAGI1_2, Q96QZ7; [1]) was 3.78. For the same binder, the pKd (GRIP2_5, Q9C0E4; [1]) was “below the threshold”, the pKd (GORASP1, Q9BQQ3; [1]) was 3.61 and the pKd (GRIP2_6, Q9C0E4; [1]) was “below the threshold”. The pKd (MPP2, Q14168; [1]) was “below the threshold”, the pKd (HTRA2, O43464; [1]) was “below the threshold” and the pKd (GRIP2_7, Q9C0E4; [1]) was “below the threshold”. For the same binder, the pKd (NHERF4_2, Q86UT5; [1]) was “below the threshold” and the pKd (DVL3, Q92997; [1]) was “below the threshold”.

In the case of SSSNSEDTEM [NHERF3, Q5T2W1], the pKd (DLG2_3, Q15700; [2]) is reported as “below the threshold”, the pKd (LIN7C, Q9NUP9; [2]) is reported as “below the threshold” and the pKd (SCRIB_3, Q14160; [2]) is reported as “below the threshold”. The pKd (MPDZ_10, O75970; [2]) was “below the threshold”, the pKd (Inadl_10, Q8NI35; [2]) was “below the threshold” and the pKd (LDB3, O75112; [2]) was “below the threshold”. The pKd (SIPA1L2, Q9P2F8; [2]) was “below the threshold”, the pKd (DLG1_1, Q12959; [2]) was “below the threshold” and the pKd (DLG3_1, Q92796; [2]) was “below the threshold”. The pKd (PARD3_3, Q8TEW0; [2]) was “below the threshold”, the pKd (APBA2_2, Q99767; [2]) was “below the threshold” and the pKd (NOS1, P29475; [2]) was “below the threshold”. For the same binder, the pKd (DFNB31_2, Q9P202; [2]) was “below the threshold”, the pKd (LNX2_2, Q8N448; [2]) was “below the threshold” and the pKd (GRIP2_4, Q9C0E4; [2]) was “below the threshold”. The pKd (FRMPD1, Q5SYB0; [2]) was “below the threshold”, the pKd (TX1BP3, O14907; [2]) was “below the threshold” and the pKd (MAGI1_2, Q96QZ7; [2]) was “below the threshold”. For the same binder, the pKd (GRIP2_5, Q9C0E4; [2]) was “below the threshold”, the pKd (GORASP1, Q9BQQ3; [2]) was “below the threshold” and the pKd (GRIP2_6, Q9C0E4; [2]) was “below the threshold”. The pKd (MPP2, Q14168; [2]) was “below the threshold”, the pKd (HTRA2, O43464; [2]) was “below the threshold” and the pKd (GRIP2_7, Q9C0E4; [2]) was “below the threshold”. For the same binder, the pKd (NHERF4_2, Q86UT5; [2]) was “below the threshold” and the pKd (DVL3, Q92997; [2]) was “below the threshold”.

In the case of IQREDQETAV [DGKZ, Q13574], the pKd (DLG2_3, Q15700; [1]) is reported as 4.38, the pKd (LIN7C, Q9NUP9; [1]) is reported as 4.49 and the pKd (SCRIB_3, Q14160; [1]) is reported as 5.05. For the same binder, the pKd (MPDZ_10, O75970; [1]) was “below the threshold”, the pKd (Inadl_10, Q8NI35; [1]) was “below the threshold” and the pKd (LDB3, O75112; [1]) was “below the threshold”. For the same binder, the pKd (SIPA1L2, Q9P2F8; [1]) was “below the threshold”, the pKd (DLG1_1, Q12959; [1]) was 4.73 and the pKd (DLG3_1, Q92796; [1]) was 4.26. For the same binder, the pKd (PARD3_3, Q8TEW0; [1]) was “below the threshold”, the pKd (APBA2_2, Q99767; [1]) was “below the threshold” and the pKd (NOS1, P29475; [1]) was 4.34. For the same binder, the pKd (DFNB31_2, Q9P202; [1]) was “below the threshold”, the pKd (LNX2_2, Q8N448; [1]) was “below the threshold” and the pKd (GRIP2_4, Q9C0E4; [1]) was “below the threshold”. For the same binder, the pKd (FRMPD1, Q5SYB0; [1]) was “below the threshold”, the pKd (TX1BP3, O14907; [1]) was 4.18 and the pKd (MAGI1_2, Q96QZ7; [1]) was “below the threshold”. The pKd (GRIP2_5, Q9C0E4; [1]) was “below the threshold”, the pKd (GORASP1, Q9BQQ3; [1]) was “below the threshold” and the pKd (GRIP2_6, Q9C0E4; [1]) was “below the threshold”. The pKd (MPP2, Q14168; [1]) was “below the threshold”, the pKd (HTRA2, O43464; [1]) was “below the threshold” and the pKd (GRIP2_7, Q9C0E4; [1]) was “below the threshold”. For the same binder, the pKd (NHERF4_2, Q86UT5; [1]) was “below the threshold” and the pKd (DVL3, Q92997; [1]) was “below the threshold”.
